Here are results for one molecule from publication PMC11911456, “Investigating synthetic lethality and PARP inhibitor resistance in pancreatic cancer through enantiomer differential activity” (Cell Death Discovery, 2025).

The target in this experiment is T1, human RAD51 protein (human, UniProt Q06609-1 1-339).
T1 construct: RAD51 recombinase, human, NP_002866, bought from Creative Biomart; This is the RAD51 of the ELISA; source: bought: Creative Biomart
T1 sequence (looked up): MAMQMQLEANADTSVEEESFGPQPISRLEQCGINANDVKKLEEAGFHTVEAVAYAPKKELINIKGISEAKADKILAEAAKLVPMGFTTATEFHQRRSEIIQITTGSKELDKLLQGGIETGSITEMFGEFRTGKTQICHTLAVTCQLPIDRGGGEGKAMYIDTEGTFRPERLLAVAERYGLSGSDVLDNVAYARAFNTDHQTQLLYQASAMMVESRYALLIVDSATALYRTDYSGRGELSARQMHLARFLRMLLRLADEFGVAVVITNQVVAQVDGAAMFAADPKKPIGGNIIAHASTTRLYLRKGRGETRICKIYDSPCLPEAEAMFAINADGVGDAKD
Briefly: ELISA; competitive ELISA; BRC4-biotinylated peptide coated on 384-well plates, blocked with 1% BSA/PBS-T, overnight hybridisation with human RAD51; small-molecule compounds added 0.01-100 uM at constant 1% DMSO; detection with anti-RAD51 and HRP-secondary antibodies. The following applies: both partners purified. A general note: An ELISA detects its analyte on a solid surface through an enzyme-linked reagent.

B1: BRC4-biotinylated peptide (peptide)
peptide: KEPTLLGFHTASGKKVKIAKESLDKVKNLFDEKEQ
modifications: biotin on the N-terminus
notes: BRC4 repeat of BRCA2; holds the FxxA motif (BRCA2 residues 1524-1527) and the LFDE motif (BRCA2 residues 1545-1548) as numbered in the introduction; also called biotinylated BRC4 peptide; BRC4 peptide; source: bought: Life Technologies
As to B1, the binding result is “binds”.
